Measurements taken from PMC2749821 (BMC Biology, 2009).

B1: bone morphogenetic protein 2 (BMP2), mature part, wild type (ligand, human)
chain: MAQAKHKQRKRLKSSCKRHPLYVDFSDVGWNDWIVAPPGYHAFYCHGECPFPLADHLNSTNHAIVQTLVNSVNSKIPKACCVPTELSAISMLYLDENEKVVLKNYQDMVVEGCGCR
modifications: biotin (sulfo-NHS-LC-biotin) where immobilised
notes: N-terminal Met-Ala added to the mature part; dimeric ligand; also called wtBMP2; BMP2wt; source: E. coli, isolated from inclusion bodies, renatured and purified
B2: BMP receptor II (BMPR-II) ectodomain, human (receptor, UniProt Q13873 32-150, looked up)
chain: RLCAFKDPYQQDLGIGESRISHENGTILCSKGSTCYGLWEKSKGDINLVKQGCWSHIGDPQECHYEECVVTTTPPSIQNGTYRFCCCSTDLCNVNFTENFPPPDTTPLSPPHSFNRDET
modifications: N-biotinylated (sulfo-NHS-LC-biotin) where immobilised
notes: also called hBMPR-II
B3: bone morphogenetic protein 7 (BMP7), human (ligand, UniProt P18075 293-431, looked up)
chain: STGSKQRSQNRSKTPKNQEALRMANVAENSSSDQRQACKKHELYVSFRDLGWQDWIIAPEGYAAYYCEGECAFPLNSYMNATNHAIVQTLVHFINPETVPKPCCAPTQLNAISVLYFDDSSNVILKKYRNMVVRACGCH
modifications: biotin (sulfo-NHS-LC-biotin) where immobilised
notes: human BMP7, CHO-cell derived, bought; dimeric ligand; also called hBMP7; source: bought: R&D Systems (CHO-cell derived)
B4: growth and differentiation factor 5 (GDF5), mature part (ligand)
chain: MKRQGKRPSKNLKARCSRKALHVNFKDMGWDDWIIAPLEYEAFHCEGLCEFPLRSHLEPTNHAVIQTLMNSMDPESTPPTCCVPTRLSPISILFIDSANNVVYKQYEDMVVESCGCR
modifications: biotin (sulfo-NHS-LC-biotin) where immobilised
notes: N-terminal Met-Lys added to the mature part; dimeric ligand; source: E. coli, isolated from inclusion bodies, renatured and purified

Columns and labels:
Conditions in all cases: both partners purified
[1] = molecular target: B2; assay: SPR; Biacore 2000; receptor ectodomains as analyte over biotinylated ligands on streptavidin-coated CM5 chips; HBS500, 25°C, 10 μl/min; apparent affinities, 1:1 interaction
[2] = molecular target: B2; assay: SPR; Biacore 2000; ligands as analyte over biotinylated receptor ectodomains (about 200 RU) on streptavidin-coated CM5 chips; HBS500 (10 mM HEPES pH 7.4, 500 mM NaCl, 3.4 mM EDTA, 0.005% P20), 25°C, 10 μl/min; apparent affinities, 1:2 interaction with avidity
[3] = molecular target: B3; assay: SPR; Biacore 2000; receptor ectodomains as analyte over biotinylated ligands on streptavidin-coated CM5 chips; HBS500, 25°C, 10 μl/min; apparent affinities, 1:1 interaction
[4] = molecular target: B3; assay: SPR; Biacore 2000; ligands as analyte over biotinylated receptor ectodomains (about 200 RU) on streptavidin-coated CM5 chips; HBS500 (10 mM HEPES pH 7.4, 500 mM NaCl, 3.4 mM EDTA, 0.005% P20), 25°C, 10 μl/min; apparent affinities, 1:2 interaction with avidity
[5] = molecular target: T1, activin receptor type II (ActR-II) ectodomain, human (human, UniProt P27037 18-135, N-biotinylated (sulfo-NHS-LC-biotin) where immobilised); assay: SPR; Biacore 2000; receptor ectodomains as analyte over biotinylated ligands on streptavidin-coated CM5 chips; HBS500, 25°C, 10 μl/min; apparent affinities, 1:1 interaction
T1 construct: also called hActR-II

[6] = molecular target: T1, activin receptor type II (ActR-II) …; assay: SPR; Biacore 2000; ligands as analyte over biotinylated receptor ectodomains (about 200 RU) on streptavidin-coated CM5 chips; HBS500 (10 mM HEPES pH 7.4, 500 mM NaCl, 3.4 mM EDTA, 0.005% P20), 25°C, 10 μl/min; apparent affinities, 1:2 interaction with avidity

Binder: B1
- Kd [1]: 13000 nM
- KD (kin) [2]: 45 nM
- Kd [2]: 59 nM

Binder: B2
- Kd [3]: 9100 nM
- koff [3]: > 0.1 s⁻¹
- Kd [4]: 40 nM
- koff [4]: 0.024 s⁻¹
- kon [4]: 960000 M⁻¹ s⁻¹

Binder: B3
- Kd [5]: 880 nM
- koff [5]: > 0.1 s⁻¹
- KD (kin) [2]: 25 nM
- KD (kin) [6]: 5.1 nM
- Kd [6]: 8 nM
- koff [6]: 0.0062 s⁻¹
- kon [6]: 1.2e+06 M⁻¹ s⁻¹

Binder: B4
- Kd [1]: 60000 nM
- KD (kin) [2]: 36 nM
- Kd [2]: 46 nM
